# Test results from publication PMC10681739, “High-throughput data and modeling reveal insights into the mechanisms of cooperative DNA-binding by transcription factor proteins”.
# T1: ETS1 (Homo sapiens, UniProt P14921)
# T1 sequence: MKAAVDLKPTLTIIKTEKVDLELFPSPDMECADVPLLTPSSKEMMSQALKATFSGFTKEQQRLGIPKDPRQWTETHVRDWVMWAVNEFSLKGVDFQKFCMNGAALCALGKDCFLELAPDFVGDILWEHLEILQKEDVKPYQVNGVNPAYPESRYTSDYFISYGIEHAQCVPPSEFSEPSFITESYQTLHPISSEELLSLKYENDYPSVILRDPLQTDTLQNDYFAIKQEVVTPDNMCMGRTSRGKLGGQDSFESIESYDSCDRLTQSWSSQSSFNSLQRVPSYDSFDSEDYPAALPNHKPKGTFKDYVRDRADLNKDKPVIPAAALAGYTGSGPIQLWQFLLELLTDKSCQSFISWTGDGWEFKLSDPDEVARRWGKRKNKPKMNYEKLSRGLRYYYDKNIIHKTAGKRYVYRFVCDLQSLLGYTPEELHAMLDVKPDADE
# B1: Table S2 B row 2874 (dsDNA)
# DNA 1: TGAGCAAGTTCCTTCCTGTCTGTGCTCCAGGGTTTA
# DNA 2: TAAACCCTGGAGCACAGACAGGAAGGAACTTGCTCA
# B2: Table S2 B row 3837 (dsDNA)
# DNA 1: CTGCTTCCGGCCCCGGGGTTCGCTACCCCAAAATCC
# DNA 2: GGATTTTGGGGTAGCGAACCCCGGGGCCGGAAGCAG
# B3: Table S2 B row 1126 (dsDNA)
# DNA 1: TCCAGCCCCACCGGAAGTGGATGTGATTAATCTAGT
# DNA 2: ACTAGATTAATCACATCCACTTCCGGTGGGGCTGGA
# B4: Table S2 B row 1459 (dsDNA)
# DNA 1: CAGATCCGGCGTGGACGAAGCTCGGGAACTACAACA
# DNA 2: TGTTGTAGTTCCCGAGCTTCGTCCACGCCGGATCTG
# B5: Table S2 B row 3509 (dsDNA)
# DNA 1: CATGAGAAACATCCTGCCCAACAACCTGACTACAAG
# DNA 2: CTTGTAGTCAGGTTGTTGGGCAGGATGTTTCTCATG
# B6: Table S2 B row 813 (dsDNA)
# DNA 1: TGATGTAGAATCCGCTCGGCTTCCGGCGAGGGTGGG
# DNA 2: CCCACCCTCGCCGGAAGCCGAGCGGATTCTACATCA
# B7: Table S2 B row 875 (dsDNA)
# DNA 1: AGGCAGCACAGGAAGTTATAACTACATGTACACTTG
# DNA 2: CAAGTGTACATGTAGTTATAACTTCCTGTGCTGCCT
# B8: Table S2 B row 575 (dsDNA)
# DNA 1: GCAGTGCAGGAAGTGCTTTGTCTGGTACAATCCCAA
# DNA 2: TTGGGATTGTACCAGACAAAGCACTTCCTGCACTGC
# B9: Table S2 B row 3968 (dsDNA)
# DNA 1: GCCGCCGTTTCCTGATTGGTCGTGGGTGGCTACCTC
# DNA 2: GAGGTAGCCACCCACGACCAATCAGGAAACGGCGGC
# B10: Table S2 B row 2744 (dsDNA)
# DNA 1: TTAGCACATCCTGGGTACACAGAGCACAGCCTCCTC
# DNA 2: GAGGAGGCTGTGCTCTGTGTACCCAGGATGTGCTAA
# B11: Table S2 B row 1859 (dsDNA)
# DNA 1: GTGAACTTCCTCCCCCACTGCCTATTTTTACAGCAG
# DNA 2: CTGCTGTAAAAATAGGCAGTGGGGGAGGAAGTTCAC
# B12: Table S2 B row 3031 (dsDNA)
# DNA 1: CCCGGGGGCAGGAAATGTCGCCTTACCCTCAGCCTT
# DNA 2: AAGGCTGAGGGTAAGGCGACATTTCCTGCCCCCGGG
# B13: Table S2 B row 2489 (dsDNA)
# DNA 1: CCTTCCTTCCTGCTGTGTACGTTGGGGTCACAGCAC
# DNA 2: GTGCTGTGACCCCAACGTACACAGCAGGAAGGAAGG
# B14: Table S2 B row 1396 (dsDNA)
# DNA 1: GAGGAGGAAAGCGGAAGCGCTGCCCTCAGTGGTAGG
# DNA 2: CCTACCACTGAGGGCAGCGCTTCCGCTTTCCTCCTC
# B15: Table S2 B row 1777 (dsDNA)
# DNA 1: CCTTCCTTCCGCTGGCAGTAACTAGGCAGTGGACAC
# DNA 2: GTGTCCACTGCCTAGTTACTGCCAGCGGAAGGAAGG
# B16: Table S2 B row 1297 (dsDNA)
# DNA 1: CCTAGAACCGGAAGAGAAAGGGGCTGGGGTGCAGCA
# DNA 2: TGCTGCACCCCAGCCCCTTTCTCTTCCGGTTCTAGG
# B17: Table S2 B row 2699 (dsDNA)
# DNA 1: CTCAGGAATGCGGAAGTGCTCTGTGAGCACCCACCA
# DNA 2: TGGTGGGTGCTCACAGAGCACTTCCGCATTCCTGAG
# B18: Table S2 B row 980 (dsDNA)
# DNA 1: GCGGGCGGAAGTGCCGAGGTTGTACCTCGGCGCTGG
# DNA 2: CCAGCGCCGAGGTACAACCTCGGCACTTCCGCCCGC
# Target: T1, ETS1
# Assay: gcPBM; 1 nM ETS1
# Conditions: tags: N-terminal GST (pDEST15), kept (PMC6008103); label: surface-attached array probe
row,Binder,binding signal
1,B1,"5140 PBM fluorescence, median of replicate spots"
2,B2,"27500 PBM fluorescence, median of replicate spots"
3,B3,"25900 PBM fluorescence, median of replicate spots"
4,B4,"5020 PBM fluorescence, median of replicate spots"
5,B5,"5340 PBM fluorescence, median of replicate spots"
6,B6,"4160 PBM fluorescence, median of replicate spots"
7,B7,"4250 PBM fluorescence, median of replicate spots"
8,B8,"4090 PBM fluorescence, median of replicate spots"
9,B9,"4470 PBM fluorescence, median of replicate spots"
10,B10,"5610 PBM fluorescence, median of replicate spots"
11,B11,"4830 PBM fluorescence, median of replicate spots"
12,B12,"4680 PBM fluorescence, median of replicate spots"
13,B13,"5450 PBM fluorescence, median of replicate spots"
14,B14,"4360 PBM fluorescence, median of replicate spots"
15,B15,"5510 PBM fluorescence, median of replicate spots"
16,B16,"4610 PBM fluorescence, median of replicate spots"
17,B17,"4940 PBM fluorescence, median of replicate spots"
18,B18,"4750 PBM fluorescence, median of replicate spots"
